Test results: article PMC8594541

B1: 1-deoxy-D-xylulose 5-phosphate reductoisomerase (AbIspC) (Acinetobacter baumannii AB307-0294) (protein)
chain: MTQSVCILGVTGSIGRSTLKILGQHPDKYSVFAVSAHSRISELVEICKQFRPKVVVVPEQKIAELKTLFAQQNISDIDVLAGQEGLVDIASHTDVDIVMAAIVGAAGLLPTLAAVKAGKRVLLANKEALVMSGEIMMQAARDHQALLLPVDSEHNAIFQSLPHNYLQADRTGQPQLGVSKILLTASGGPFLNHSLEQLVHVTPQQACKHPNWSMGQKISVDSATLMNKGLELIEACHLFSISEHFVTVVVHPQSIIHSMVQYVDGSTLAQMGNPDMCTPIAHALAWPERLQTNVPALDLFEYSQLNFQAPDTQKFPALNLARQAMRAGGLAPTILNAANEIAVEAFLMERIGFTSIPQVVEHTLEKLENAAAESIECILDKDKVARSVAQQYISSIGG
B2: 1-deoxy-D-xylulose 5-phosphate reductoisomerase (KpIspC) (Klebsiella pneumoniae subsp. pneumoniae MGH 78578) (protein)
chain: MKQLTVLGSTGSIGCSTLDVVRHNPGRFSVAALVAGKNVDRMVEQCLEFTPRYAVMDDAQSAERLRTRLHEHGSRTEVLSGQQAAAEVAALDEVDQVMAAIVGAAGLVPTLAAIRAGKTVLLANKESLVTCGRLFMEAVQQSGARLLPVDSEHNAIFQSMPETIQQHLGYADLAQNGVSSILLTGSGGPFRETAVAELAAMTPDQACRHPNWSMGRKISVDSATMMNKGLEYIEARWLFNASAQQMEVLIHPQSVIHSMVRYQDGSVLAQLGEPDMRTPIAHTMGWPQRLNSGVKPLDFCQLSNLSFSAPDYTRYPCLKLAMDAFDVGQAATTTLNAANEESVAAFLHGDIRFTDIAAVNLAVLDKMDLQEPQSIDDVLVIDAEARAIAHQQLQRLVAQA

What was measured:
purified protein [1] = substrate: CC(=O)[C@@H](O)[C@H](O)COP(=O)(O)O; test: purified protein; format: biochemical, Acinetobacter baumannii; conditions: NADPH, Mg2+
purified protein [2] = substrate: CC(=O)[C@@H](O)[C@H](O)COP(=O)(O)O; test: purified protein; format: biochemical, Klebsiella pneumoniae; conditions: NADPH, Mg2+

Row | Protein | Km (purified protein [1]) [µM] | kcat (purified protein [1]) [s⁻¹] | Km (purified protein [2]) [µM] | kcat (purified protein [2]) [s⁻¹]
1 | B1 | 127.6 | 1.92 ± 0.03 | – | –
2 | B2 | – | – | 155.5 | 2.21 ± 0.06
